Test results taken from PMC6405930, “Conservation of the Amyloid Interactome Across Diverse Fibrillar Structures” (Scientific Reports, 2019).

B1: Mimecan: CSF protein bound to fibrils (protein, UniProt P20774 21-298, looked up)
Mimecan: PPTQQDSRIIYDYGTDNFEESIFSQDYEDKYLDGKNIKEKETVIIPNEKSLQLQKDEAITPLPPKKENDEMPTCLLCVCLSGSVYCEEVDIDAVPPLPKESAYLYARFNKIKKLTAKDFADIPNLRRLDFTGNLIEDIEDGTFSKLSLLEELSLAENQLLKLPVLPPKLTLFNAKYNKIKSRGIKANAFKKLNNLTFLYLDHNALESVPLNLPESLRVIHLQFNNIASITDDTFCKANDTSYIRDRIEEIRLEGNPIVLGKHPNSFICLKRLPIGSYF
B2: EGF-containing fibulin-like extracellular matrix protein 1: CSF protein bound to fibrils (protein, UniProt Q12805 18-493, looked up)
EGF-containing fibulin-like …: QDTEETITYTQCTDGYEWDPVRQQCKDIDECDIVPDACKGGMKCVNHYGGYLCLPKTAQIIVNNEQPQQETQPAEGTSGATTGVVAASSMATSGVLPGGGFVASAAAVAGPEMQTGRNNFVIRRNPADPQRIPSNPSHRIQCAAGYEQSEHNVCQDIDECTAGTHNCRADQVCINLRGSFACQCPPGYQKRGEQCVDIDECTIPPYCHQRCVNTPGSFYCQCSPGFQLAANNYTCVDINECDASNQCAQQCYNILGSFICQCNQGYELSSDRLNCEDIDECRTSSYLCQYQCVNEPGKFSCMCPQGYQVVRSRTCQDINECETTNECREDEMCWNYHGGFRCYPRNPCQDPYILTPENRCVCPVSNAMCRELPQSIVYKYMSIRSDRSVPSDIFQIQATTIYANTINTFRIKSGNENGEFYLRQTSPVSAMLVLVKSLSGPREHIVDLEMLTVSSIGTFRTSSVLRLTIIVGPFSF
B3: SPARC-like protein 1: CSF protein bound to fibrils (protein, UniProt Q14515 17-664, looked up)
SPARC-like protein 1: IPTNARLLSDHSKPTAETVAPDNTAIPSLRAEAEENEKETAVSTEDDSHHKAEKSSVLKSKEESHEQSAEQGKSSSQELGLKDQEDSDGHLSVNLEYAPTEGTLDIKEDMSEPQEKKLSENTDFLAPGVSSFTDSNQQESITKREENQEQPRNYSHHQLNRSSKHSQGLRDQGNQEQDPNISNGEEEEEKEPGEVGTHNDNQERKTELPREHANSKQEEDNTQSDDILEESDQPTQVSKMQEDEFDQGNQEQEDNSNAEMEEENASNVNKHIQETEWQSQEGKTGLEAISNHKETEEKTVSEALLMEPTDDGNTTPRNHGVDDDGDDDGDDGGTDGPRHSASDDYFIPSQAFLEAERAQSIAYHLKIEEQREKVHENENIGTTEPGEHQEAKKAENSSNEEETSSEGNMRVHAVDSCMSFQCKRGHICKADQQGKPHCVCQDPVTCPPTKPLDQVCGTDNQTYASSCHLFATKCRLEGTKKGHQLQLDYFGACKSIPTCTDFEVIQFPLRMRDWLKNILMQLYEANSEHAGYLNEKQRNKVKKIYLDEKRLLAGDHPIDLLLRDFKKNYHMYVYPVHWQFSELDQHPMDRVLTHSELAPLRASLVPMEHCITRFFEECDPNKDKHITLKEWGHCFGIKEEDIDENLLF
B4: Vitamin D-binding protein: CSF protein bound to fibrils (protein, UniProt P02774 17-474, looked up)
Vitamin D-binding protein: LERGRDYEKNKVCKEFSHLGKEDFTSLSLVLYSRKFPSGTFEQVSQLVKEVVSLTEACCAEGADPDCYDTRTSALSAKSCESNSPFPVHPGTAECCTKEGLERKLCMAALKHQPQEFPTYVEPTNDEICEAFRKDPKEYANQFMWEYSTNYGQAPLSLLVSYTKSYLSMVGSCCTSASPTVCFLKERLQLKHLSLLTTLSNRVCSQYAAYGEKKSRLSNLIKLAQKVPTADLEDVLPLAEDITNILSKCCESASEDCMAKELPEHTVKLCDNLSTKNSKFEDCCQEKTAMDVFVCTYFMPAAQLPELPDVELPTNKDVCDPGNTKVMDKYTFELSRRTHLPEVFLSKVLEPTLKSLGECCDVEDSTTCFNAKGPLLKKELSSFIDKGQELCADYSENTFTEYKKKLAERLKAKLPDATPTELAKLVNKHSDFASNCCSINSPPLYCDSEIDAELKNIL

What follows are molecules tested on T1, Ab1 fibrils (assay: Fibril incubation with CSF, quantitative MS/MS of bound proteins). Details: 4:1 w/w CSF protein:fibril.
T1 construct: Synthetic amyloid β peptide 1–40 was purchased from Caslo Aps (Lyngby, Denmark); purchased Caslo Aps (Lyngby, Denmark); host or cells: synthetic peptide
Format: binding, human
Method: (§1) Plasma and CSF solutions were centrifuged (40,000 g, 20 min) to remove any aggregates. The protein concentration was determined using 280 nm absorbance assuming 1 Abs = 1 mg/mL. […] Control samples (without fibril material) were prepared similarly. All samples were incubated at room temperature for one hour under gentle agitation. Fibrils and fibril-bound proteins were pelleted by centrifugation at 17,000 g for 30 minutes. The supernatant (175 μL) was removed and the aggregate was re-suspended in 175 μL PBS and pelleted again before further preparation for gel analysis and spin-filter assisted digest for quantitative MS/MS.
(§2) The fibril-protein pellets were transferred to spin-filters (0.22 μm), washed twice in PBS (100 μL) and once in 1 M NaCl (100 μL). The fibrils and fibril-bound proteins were dissolved by one-hour incubation in 100 μL 6 M guanidinium chloride followed by elution from the spin-filter. The eluted proteins were loaded onto a 3 kDa MWCO filter unit for filter-assisted unfolding, reduction, alkylation, and trypsin digestion. In brief, samples were washed twice in 8 M urea, once in 8 M urea with 50 mM DTT, once in 8 M urea with 50 mM iodoaceteamide, and twice in 8 M Urea. The filter units were dried by centrifugation (14,000 g in 30 minutes) after every addition. Trypsin digestion was carried out with 0.25 μg sequencing grade trypsin from Sigma Aldrich in 50 mM ammonium bicarbonate overnight at 37 °C. The tryptic peptides were collected by centrifugation, acidified with TFA (0.1%) and micro-purified using POROS R2 column material (Applied Biosystems) packed in P200 pipette tips (Sarstedt).
(§3) LC-MS/MS analyses were performed on an EASY-nLC II system (Thermo Fisher Scientific) connected to a TripleTOF 5600+ mass spectrometer (Sciex) equipped with a NanoSpray III source (Sciex) and operated under Analyst TF 1.6.0 control.
(§4) The micro-purified tryptic peptides were dissolved in 0.1% formic acid, injected and trapped on an in-house packed trap column (2 cm × 100 μm I.D) with RP ReproSil-Pur C18-AQ 3 μm resin (Dr. Maisch GmbH). Peptides were eluted from the trap column and separated on a 15 cm analytical column (75 μm i.d.) packed in-house in a pulled emitter with RP ReproSil-Pur C18-AQ 3 μm resin (Dr. Maisch GmbH). Elution from the analytical column was performed with a linear gradient from 5% to 35% phase B (90% acetonitrile with 0.1% formic acid) over 20 min for protein identification and 50 min for quantitative analysis, respectively.
(§5) All samples were analysed three times, yielding nine MS/MS experiments for each fibril for both plasma and CSF. For the area-based extracted ion chromatogram (XIC) quantification, the acquisition method was set up as an information-dependent acquisition (IDA) experiment collecting up to 25 MS/MS spectra in each 1.6 sec cycle using an exclusion window of 6 sec.
(§6) XIC quantification was based on the average ion intensity of the three most abundant peptides for each protein. Only proteins quantified in at least four out of nine MS/MS experiments per fibril were included in the quantification. The total ion scores were visualized after grouping the proteins according to function (Figure S11).
(§7) For each MS/MS experiment, the ion intensities of the individual proteins were normalized to the total ion intensity of that MS/MS experiment to achieve a relative protein composition. The contribution of each protein was averaged over all nine MS/MS experiments (Tables 1 and 2).
With B1 the “Relative composition of CSF proteins bound: Ab1” value was 0.5 ± 0.0 % of total protein. B2 was tested, and the “Relative composition of CSF proteins bound: Ab1” value was 0.6 ± 0.2 % of total protein. B3 was tested, and the “Relative composition of CSF proteins bound: Ab1” value was 1.2 ± 0.1 % of total protein. For B4, the “Relative composition of CSF proteins bound: Ab1” value was 0.7 ± 0.0 % of total protein.

These molecules were tested on T2, Ab2 fibrils in the same assay as above. Details: 4:1 w/w CSF protein:fibril.
T2 construct: Two structurally distinct fibrils of the Aβ(1–40) peptide associated with AD
Format: binding, human
Method: as §1, §2, §3, §4, §5, §6, §7
With B1 the “Relative composition of CSF proteins bound: Ab2” value was 0.6 ± 0.2 % of total protein. For B2, the “Relative composition of CSF proteins bound: Ab2” value was 1.0 ± 0.3 % of total protein. In the case of B3, the “Relative composition of CSF proteins bound: Ab2” value is reported as 1.4 ± 0.0 % of total protein. For B4, the “Relative composition of CSF proteins bound: Ab2” value was 1.1 ± 0.0 % of total protein.

The molecules below were run against T3, glucagon fibrils (Homo sapiens, UniProt P01275) in the same assay as above. Details: 4:1 w/w CSF protein:fibril.
T3 construct: fibrils of the peptide hormone glucagon
T3 sequence (P01275 53-81 limits assumed): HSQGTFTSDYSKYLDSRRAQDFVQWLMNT
Format: binding
Method: as §1, §2, §3, §4, §5, §6, §7
In the case of B1, the “Relative composition of CSF proteins bound: Glucagon” value is reported as 0.2 ± 0.1 % of total protein. B2 was tested, and the “Relative composition of CSF proteins bound: Glucagon” value was 0.2 ± 0.1 % of total protein. In the case of B3, the “Relative composition of CSF proteins bound: Glucagon” value is reported as 0.4 ± 0.1 % of total protein. In the case of B4, the “Relative composition of CSF proteins bound: Glucagon” value is reported as 0.8 ± 0.1 % of total protein.

What follows are molecules tested against T4, C-36 fibrils (Homo sapiens, UniProt P01009) in the same assay as above. Details: 4:1 w/w CSF protein:fibril.
T4 construct: the 36 residue C-terminal fragment of α1-antitrypsin (C-36)
T4 sequence (P01009 383-418 limits assumed): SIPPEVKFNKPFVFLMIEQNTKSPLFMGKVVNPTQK
Format: binding
Method: as §1, §2, §3, §4, §5, §6, §7
B1 was tested, and the “Relative composition of CSF proteins bound: C-36” value was 0.4 ± 0.1 % of total protein. B2 was tested, and the “Relative composition of CSF proteins bound: C-36” value was 0.7 ± 0.1 % of total protein. With B3 the “Relative composition of CSF proteins bound: C-36” value was 0.8 ± 0.4 % of total protein. B4 was tested, and the “Relative composition of CSF proteins bound: C-36” value was 1.4 ± 0.8 % of total protein.

What follows are molecules tested against αSN fibrils (Homo sapiens, UniProt P37840) in the same assay as above. Details: 4:1 w/w CSF protein:fibril.
Format: binding
Set-up: key to Identification status of CSF protein bound: αSN: *: Identified, but not quantified; —: Not identified in any of the samples
Method: as §1, §2, §3, §4, §5, §6, §7
B1 was tested, and the “Relative composition of CSF proteins bound: αSN” value was 2.1 ± 0.9 % of total protein.

Same assay, conditions: symbol cells
With B2 the “Identification status of CSF protein bound: αSN” value was “*”. In the case of B3, the “Identification status of CSF protein bound: αSN” value is reported as “*”. In the case of B4, the “Identification status of CSF protein bound: αSN” value is reported as “—”.

Each molecule was assayed on T5, FAS4-AD aggregates in the same assay as above. Details: symbol cells.
T5 construct: aggregates of a mutated version of the FAS1-4 domain of TGFBIp
Format: binding, human
Set-up: key to Identification status of CSF protein bound: FAS4-AD: *: Identified, but not quantified; —: Not identified in any of the samples
Method: as §1, §2, §3, §4, §5, §6, §7
B1 was tested, and the “Identification status of CSF protein bound: FAS4-AD” value was “*”. B2 was tested, and the “Identification status of CSF protein bound: FAS4-AD” value was “—”. In the case of B3, the “Identification status of CSF protein bound: FAS4-AD” value is reported as “—”. For B4, the “Identification status of CSF protein bound: FAS4-AD” value was “—”.
